According to the DeepSol protein solubility set:

Test: soluble on expression in E. coli; label from the status in PepcDB or PDB records
In the case of “MGAASCEDEELEFKLVFGEEKEAPPLGAGGLGEELDSEDAPPCCRLALGEPPPYGAAPIGIPRPPPPRPGMHSPPPRPAPSPGTWESQPARSVRLGGPGGGAGGAGGGRVLECPSIRITSISPTPEPPAALEDNPDAWGDGSPRDYPPPEGFGGYREAGAQGGGAFFSPSPGSSSLSSWSFFSDASDEAALYAACDEVESELNEAASRFGLGSPLPSPRASPRPWTPEDPWSLYGPSPGGRGPEDSWLLLSAPGPTPASPRPASPCGKRRYSSSGTPSSASPALSRRGSLGEEGSEPPPPPPLPLARDPGSPGPFDYVGAPPAESIPQKTRRTSSEQAVALPRSEEPASCNGKLPLGAEESVAPPGGSRKEVAGMDYLAVPSPLAWSKARIGGHSPIFRTSALPPLDWPLPSQYEQLELRIEVQPRAHHRAHYETEGSRGAVKAAPGGHPVVKLLGYSEKPLTLQMFIGTADERNLRPHAFYQVHRITGKMVATASYEAVVSGTKVLEMTLLPENNMAANIDCAGILKLRNSDIELRKGETDIGRKNTRVRLVFRVHVPQGGGKVVSVQAASVPIECSQRSAQELPQVEAYSPSACSVRGGEELVLTGSNFLPDSKVVFIERGPDGKLQWEEEATVNRLQSNEVTLTLTVPEYSNKRVSRPVQVYFYVSNGRRKRSPTQSFRFLPVICKEEPLPDSSLRGFPSASATPFGTDMDFSPPRPPYPSYPHEDPACETPYLSEGFGYGMPPLYPQTGPPPSYRPGLRMFPETRGTT”, the “soluble on expression in E. coli” value is reported as “soluble”.
In the case of “MTERKPEVIITYCTQCQWLLRAAWLAQELLSTFSDDLGKVSLEPATGGAFRITCDGVQIWERKADGGFPEAKVLKQRVRDQIDPERDLGHNDRTQLEHHHHHH”, the “soluble on expression in E. coli” value is reported as “soluble”.
In the case of “MGSDKIHHHHHHMECHIDLHNTVIQRRVPRDGRAAKHIGIAVFNGFSLLDTVSIVEAFETANRFAEASRHDAPRYVVRLLSSAGGRIASSSSVFVWTDSVEARGHAHDFHALFIAGGTGVHDAARDGRLLAWLRRTHLRSENVLSIAEGQFLLEAAGFASSAGIGSARGLVPRHYFRRETDPATQREVSSPLESALNLIEADLGTEITCKAAASLAPRASTQFTSVLNRNASGSVSDKIRASAQWLEANGHQPISIDRAAGIAAMSERNFLRRFKAEIGVTPSGYLLYVRLDMSCRLLVETALPVDKIARRCGFGDGGQLARLFRKHMGTTPSEYRNSHRQPHDR”, the “soluble on expression in E. coli” value is reported as “not soluble”.
In the case of “MNTISILSTTDLPAAWQIEQRAHAFPWSEKTFFGNQGERYLNLKLTADDRMAAFAITQVVLDEATLFNIAVDPDFQRRGLGRMLLEHLIDELETRGVVTLWLEVRASNAAAIALYESLGFNEATIRRNYYPTAQGHEDAIIMALPISMKLHHHHHHHHHH”, the “soluble on expression in E. coli” value is reported as “soluble”.
In the case of “MGHHHHHHSHMIMQEIFLCSISNVRSGDCKEDCAYCTQSSHHQGAIKRYKFKDEKVVLQEARALRQLGALGFCLVTSGRELDDEKCEYIAKLAKAINQEELGLHLIACCGRADLEQLEFLRDAGIHSYNHNLETSQNFFPKICSTHTWEERFITCENALRAGLGLCSGGIFGLNESWEDRIEMLRALASLSPHTTPINFFIKNPVLPIDAETLSADEALECVLLAKEFLPNARLMVAGGREVVFKDNDKKEAKLFEYGINAVVLGDYLTTKGKAPKKDIEKLLSYGLTMATSCH”, the “soluble on expression in E. coli” value is reported as “soluble”.
With “AHHHHHHGSKILVVAPCLLTPFYVYRGPKDKEYKTSSELRKLLAELSDEWFIFLYPCPELLAVGWPRPPMSREVLERLGTRERSKIIADFIGRVLTEEKPEKVVFVGVKGSPTCGVFTTTSSNPDEFPYVAVQEFFYLSKEERLRKYKELTKNFKVINAPGLLFEILMARFPEAIFVEFDKDNIEESIRRIREVVKE” the “soluble on expression in E. coli” value was “soluble”.
With “MALSSAPILITGASQRVGLHCALRLLEHGHQVIISYRTEHASVAQLRQAGAHTLHGDFSSEASIMAFIEQLKSHTSSLRAIVHNASEWLAETPGDEAENFTRMFSVHMLAPYLINLHCEALLHASDVADIVHISDDVTRKGSSKHIAYCATKAGLESLTLSFAARFAPLVKVNGIAPALLMFQPKDDAAYRANALAKSAMGIEPGAEVIYQSLRYLLDSTYVTGTTLTVNGGRHV” the “soluble on expression in E. coli” value was “not soluble”.
For “MDLSGVKKKSLLGVKENNKKSSTRAPSPTKRKDRSDEKSKDRSKDKGATKESSEKDRGRDKTRKRRSASSGSSSTRSRSSSTSSSGSSTSTGSSSGSSSSSASSRSGSSSTSRSSSSSSSSGSPSPSRRRHDNRRRSRSKSKPPKRDEKERKRRSPSPKPTKVHIGRLTRNVTKDHIMEIFSTYGKIKMIDMPVERMHPHLSKGYAYVEFENPDEAEKALKHMDGGQIDGQEITATAVLAPWPRPPPRRFSPPRRMLPPPPMWRRSPPRMRRRSRSPRRRSPVRRRSRSPGRRRHRSRSSSNSSR”, the “soluble on expression in E. coli” value was “soluble”.
With “QVQLQQSGAELMKPGASVKISCKATGYTFSSYWIAWVKQRPGHGLEWIGEILPGSGSTNYNEKFKGKATFTADTSSNTAYMQLSSLTSEDSAVYYCARSPYYYGNWDYWGQGTTLTVSSAKTTPPSVYPLAPGSAAQTNSMVTLGCLVKGYFPEPVTVTWNSGSLSSGVHTFPAVLQSDLYTLSSSVTVPSSTWPSETVTCNVAHPASSTKVDKKIVPRDC” the “soluble on expression in E. coli” value was “soluble”.
In the case of “MTLIEPDMNLRMPDISTTVETLNLISKMEAQKENIRSVIAPEHKHKYKDIENGLKGEEKVLIEQMAQHCEAFKANFKGAAQGDWVKSAMSEIDSIKDDLKKINSLEHHHHHH”, the “soluble on expression in E. coli” value is reported as “not soluble”.
For “MTTVLYYLPASPPCRSVLLLAKMIGVELDLKVLNIMEGEQLKPDFVELNPQHCIPTMDDHGLVLWESRVILSYLVSAYGKDENLYPKDFRSRAIVDQRLHFDLGTLYQRVVDYYFPTIHLGAHLDQTKKAKLAEALGWFEAMLKQYQWSAANHFTIADIALCVTVSQIEAFQFDLHPYPRVRAWLLKCKDELEGHGYKEINETGAETLAGLFRSKLKQ”, the “soluble on expression in E. coli” value was “soluble”.
In the case of “MGSDKIHHHHHHMTLDNPVANKFSIAASQYKQHDVLQRITAKQLLDNAPLFGTLLDVGAGPGTSFNAFNDVEQVVAVDIAHGMLNQLTKQYPDYLPICSDAQALGLQSASIDSIYSNLALQWCQNLPEAFAEFHRVLRQNGECYLSVVVDGSLAELKTLGFRVNQFNSVSAIKAAFIASQDSPNDWLNIDIQVKSISVYFDDLRSLLYSIKGVGASFAQQGENNATHHHPLTKQQWQQRIALAETMRTDKGIPLTYQIAYIRAKRG”, the “soluble on expression in E. coli” value is reported as “not soluble”.
For “MVTLYGIKNCDTIKKARRWLEANNIDYRFHDYRVDGLDSELLNGFINELGWEALLNTRGTTWRKLDETTRNKITDAASAAALMTEMPAIIKRPLLCAPGKPMLLGFSDSSYQQFFHEV”, the “soluble on expression in E. coli” value was “not soluble”.
With “MGSDKIHHHHHHMFNGRPFPVDAFPKIIRNAIYEVEQHTQAPQGLIAASALGVISLACQNRIDVCRLNNLRGPVSLFLMTLAESGERKSTVDKLLMKPLYQLEEDLFEKYTHDLTAWRNDEAIFNIEKKALMSKLKSDIRRNKDHLATNERLKELLTTNPKAPVRFKFLFNDATPAAIKAHLCGHWRSVGIMSDEAGIIFNGYTLNELPFINKMWDGSIFTVERKNEPEKLIRDARITLSLMVQPNVFKGYIDRKGDMAKGIGFFARCLMCQPASTQGNRKISNPIFSNEHLPVFHQRLMEIVNESIIKINENNRICLRFSAEAERHWIEFYNQVESEMRMIGLLYDFKDYASKMAENMARLAALLHYFSGDGGDISVTAVKAAVEIVAWYIEEYIRLFSKKEEFSLDVSEADELYCWIKDYCTQKFSSCIKKNIILQFGPNKFRNRDKANELIRILISQNKIFISSWGKTKIINITHCVF” the “soluble on expression in E. coli” value was “not soluble”.
With “MGSDKIHHHHHHMEKLFTYKEFVDMMQKYGIRHTKRKLRRGENLMENASKFSNVVLLINGYISSYTYESPEKLLSIFEPGIFLRYSILEDQPEFVTNIALSDNCEVYEYKKEDIEYALTLFPENFGFQYFFLKRIGRHLYYRALLNGKEHKEKLYYAMKYLGELIGKTDENGNVSLPPEVTLKVLIEYSTLSKAAFYRQRIRLLEQEILKPHENTFIVQKKVASHYENQLTSI” the “soluble on expression in E. coli” value was “not soluble”.
With “MRQPEDGNIRLWRYMDFSKFVALISSKSLFLNRVDRFTDPYEGHFSSLNNRLRNSIYEAKYAGSEIDPHKVASAIFDFNSFSRQWTYVNCWHANKYESAAMWDLYAKTEEAIAIETDYNSLAAVLPSEAQLGFVEYIDFDTEWMPENNATYPYLHKRKSFEHEKEVRIIVQEIPRAKSGVGFDREAVNDKHGISLDIDLNQLIKSIHVSPTAPKWLVDLTDTVSKTFGIDAHVKQSDLYKAPIK” the “soluble on expression in E. coli” value was “soluble”.
With “MSLTTSHFIPFPREMVWDWHTRKGAVARLTPPFIPLNPITQAERLADGTTIFSLPAGLKWVARHDLSGFLNGSRFTDVCLTAPVKALANWRHVHNFVDQDGGTLITDSVSTRLPASTLTGMFAYRQTQLIEDLKFLSRTSTLFDGSPLTVAITGSRGLVGRALTAQLQTGGHEVIQLVRKEPKPGKRFWDPLNPASDLLDGADVLVHLAGEPIFGRFNDSHKEAIRESRVLPTKFLAELVAESTQCTTMISASAVGFYGHDRGDEILTEESESGDDFLAEVCRDWEHATAPASDAGKRVAFIRTGVALSGRGGMLPLLKTLFSTGLGGKFGDGTSWFSWIAIDDLTDIYYRAIVDAQISGPINAVAPNPVSNADMTKILATSMHRPAFIQIPSLGPKILLGSQGAEELALASQRTAPAALENLSHTFRYTDIGAAIAHELGYEQLADFAQQQEIEAERKQERAELKAAKKIAKKAPVLEESPTNLEDPEEVEQSILSSILNFRRKRNDLEHHHHHH” the “soluble on expression in E. coli” value was “soluble”.
For “MTASKIPIKKVCEHCKQEFIALKTTTKYCSHRCNSRAYKAQKREERVRRTELSEQEKKVSDIIDKPYLSISEAGRLLGISRHTIYRYIYSGNLKAYNLSSQRSIVKREDIERMLAERPYEKRQPRDAIVITELYTTDEVCDIHNISRSSLFAIAKRENIPRTYNRGKTYWSKRHIDAYFAKQAPASHIEEWCTAVEIQERFDMTLTAVYNFISDHNIPRKKVKGKSYYSTKHVEAAKGVLDKAAPSYYTVREAMEKFGLTRDQLYQYTKRYNVPKLKQGRNVLISQQELDEVLKPPSITR”, the “soluble on expression in E. coli” value was “not soluble”.
In the case of “MRLSEAWAERKKNLSCQRGGHGAIITSITSFSEDFMTTMPAAEPVDAAERRAISPVVVYPNGTLEAPDLARLVQAKNGMEKIDEVIIPPRGGRTFTVPKGHFFRIVSIEGPQVGDLNLWNAHDLNERFFSGKTRALHATHVSVGNRLWSNLPSLRPMATITHDTLSWYGFDEDGGGVHDVIGTRCDPYTNKLLSGGDYHHCCHSNLTNALASARGLSFREAEPHVHDVLNVFMCTGFTRDTHQYFMKASPVRPGDYLELFAEIDLIGALSACPGGDCSATHSSDMAACYPLKVEIFRPDMAVLVGWPWPDRNAYRPVELEHHHHHH”, the “soluble on expression in E. coli” value is reported as “not soluble”.
With “MSLDTIAVVLKQPQQVELSRLSLTAPTDDDIVVDVAWSGVSTGTERLLWSGRMPQFPGMGYPLVPGYESVGEVVEAGSATDLKPGQMVFVPGAKCFGEVRGLFGASASRLVVPAKRVVPLDSKLGERGILIALAATAYHAIAARGATPPDCIVGHGVLGRLLARISIALGNPPPVVWEKNPIRSGGAEGYAVVDPASDERRDYRSIYDVSGDPKLLDTLISRIAATGEIVLAGFYSEPLSFSFPPAFMREARIRVAAEWQPPDIGATKALIESGKLSLDGLITHHQEAASAPDAYRIAFEDPACLKMVLNWRPSEGHHHHHH” the “soluble on expression in E. coli” value was “soluble”.
In the case of “MSLEKLAASTEPQGPRPVLGRESVQVPDDQDFRSFRSECEAEVGWNLTYSRAGVSVWVQAVEMDRTLHKIKCRMECCDVPAETLYDVLHDIEYRKKWDSNVIETFDIARLTVNADVGYYSWRCPKPLKNRDVITLRSWLPMGADYIIMNYSVKHPKYPPRKDLVRAVSIQTGYLIQSTGPKSCVITYLAQVDPKGSLPKWVVNKSSQFLAPKAMKKMYKACLKYPEWKEGHHHHHH”, the “soluble on expression in E. coli” value is reported as “not soluble”.
